B1: AM-4 MIL-38 antibody (AusMAb 4) (antibody, mouse IgG1, kappa)
heavy: QIQLVQSGPELKKPGETVKISCKASGYAFTDYSMNWVKQAPGKGLRWMGWINTETGEPTYTDDFKGRFAFSLETSASTAFLQINNLRNEDTATYFCARHYDYGGFPYWGQGTLVTVSAAKTTPPSVYPLAPGSAAQTNSMVTLGCLVKGYFPEPVTVTWNSGSLSSGVHTFPAVLQSDLYTLSSSVTVPSSTWPSETVTCNVAHPASSTKVDKKIVPRDCGCKPCICTVPEVSSVFIFPPKPKDVLTITLTPKVTCVVVDISKDDPEVQFSWFVDDVEVHTAQTQPREEQFNSTFRSVSELPIMHQDWLNGKEFKCRVNSAAFPAPIEKTISKTKGRPKAPQVYTIPPPKEQMAKDKVSLTCMITDFFPEDITVEWQWNGQPAENYKNTQPIMDTDGSYFVYSKLNVQKSNWEAGNTFTCSVLHEGLHNHHTEKSLSHSPGK
light: DIQMTQSPASLSASVGETVTITCRASGNVHNYLAWYQQKQGKSPQLLVYTAKTLADGVPSRFSGSGSGTQYSLKINSLQPEDFGTYYCQHFWSNPWTFGGGTKLEIKRADAAPTVSIFPPSSEQLTSGGASVVCFLNNFYPKDINVKWKIDGSERQNGVLNSWTDQDSKDSTYSMSSTLTLTKDEYERHNSYTCEATHKTSTSPIVKSFNRNEC
notes: Monoclonal mouse IgG1 kappa; Biotinylated AM-4 was also the detection antibody in the sandwich ELISA; also called monoclonal AM-4 MIL-38
B2: Chimeric MIL-38 antibody (Mouse VH-Human CH1-CH3 / Mouse VK-Human CK) (antibody, human IgG1, kappa)
heavy: not shown
light: DIQMTQSPASLSASVGETVTITCRASGNVHNYLAWYQQKQGKSPQLLVYTAKTLADGVPSRFSGSGSGTQYSLKINSLQPEDFGTYYCQHFWSNPWTFGGGTKLEIKRTVAAPSVFIFPPSDEQLKSGTASVVCLLNNFYPREAKVQWKVDNALQSGNSQESVTEQDSKDSTYSLSSTLTLSKADYEKHKVYACEVTHQGLSSPVTKSFNRGEC
notes: Expressed transiently in CHO-3E7 cells and purified on Protein A; also called MIL-38 chimeric antibody

Tests used:
[1] = target: T1, recombinant human GPC-1 produced from NS0 cells (human, UniProt P35052 24-530); experiment: sandwich ELISA, antibody coated as capture, biotinylated AM-4 as detection (FIG. 6A)
T1 construct: also called GPC-1 NS0; recombinant NS0-produced GPC-1
T1 sequence (looked up): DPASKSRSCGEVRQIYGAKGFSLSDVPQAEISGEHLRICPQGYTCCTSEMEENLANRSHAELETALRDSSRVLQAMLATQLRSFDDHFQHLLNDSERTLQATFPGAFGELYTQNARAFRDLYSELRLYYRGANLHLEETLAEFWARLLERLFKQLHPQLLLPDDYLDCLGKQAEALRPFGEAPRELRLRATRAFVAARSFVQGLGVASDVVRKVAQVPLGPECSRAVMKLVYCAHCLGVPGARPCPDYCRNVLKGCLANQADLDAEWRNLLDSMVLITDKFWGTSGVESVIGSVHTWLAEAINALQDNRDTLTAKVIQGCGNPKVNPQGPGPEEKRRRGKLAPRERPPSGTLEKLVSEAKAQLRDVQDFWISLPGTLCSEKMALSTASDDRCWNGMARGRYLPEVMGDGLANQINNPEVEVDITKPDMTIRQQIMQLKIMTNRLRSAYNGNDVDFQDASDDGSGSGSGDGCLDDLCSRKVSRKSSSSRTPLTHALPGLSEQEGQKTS
Description: Plates were blocked with PBS-Tween (0.1.%) containing 5% skim milk at 37° C. and washed. Antigen (recombinant human GPC-1 produced from NS0 cells) diluted in Buffer II (20 mM HEPES pH 7.5, 0.5 mM EDTA, 0.5% Triton X-100) with the addition of 150 mM NaCl and incubated overnight at 37° C. […] Absorbance was read 450 nm.

[2] = target: T2, MIL-38 antigen (GPC-1) as present in DU-145 and other cell lines (UniProt P35052 24-530); experiment: Western blot on DU-145 and C3 extracts (FIG. 2B)
T2 construct: whole, on cells; In IFA it stood on acetone-fixed cells; in Western blots it stood in membrane protein (MPEK) extracts of the cells; also called GPC-1 antigen
T2 sequence (looked up): T1 sequence (looked up)

[3] = target: T1, recombinant human GPC-1 produced from …; experiment: Western blot, three-antibody detection
Description: As a control, murine MIL-38 was detected by goat anti-mouse secondary antibody followed by a sheep-anti-goat HRP antibody. […] The complex was detected using a sheep-anti-goat HRP antibody. […] The complex was detected using a sheep-anti-mouse HRP antibody.
A control western blot using a three antibody detection method was also performed with murine MIL-38. (FIG. 9C).

[4] = target: T2, MIL-38 antigen (GPC-1) as present in …; experiment: immunofluorescence assay on DU-145 cells (FIG. 8F)
Description: IFA: Cells were grown on coverslips until 75% confluent and placed in 6 well plates. The cells were washed with PBS followed by fixing with acetone. Cells were washed again with PBS followed by incubation with TBS then blocked with PBS containing 5% skim milk. […] Both antibodies were prepared in PBS containing 1% skim milk followed. Washing with PBS was performed between the primary and secondary antibody incubations. After secondary incubation, cells were washed with PBS containing DAPI and visualised for green fluorescence (MIL-38 positive).
A slide with no primary antibody was used as a negative control.

Row | Binder | binding result [1] | binding result [2] | binding result [3] | binding result [4]
1 | B1 | binds | binds |  | 
2 | B2 |  |  | binds | binds
